Numbering of substitutions follows the chain as printed.
Experiments:
PET [1] = assay: Proxy for plastic degradation [Absorbance @ 240nm]
PET [2] = assay: Proxy for plastic degradation [Released Products (MHET,BHET, TPA)]; conditions: pH 8
PBSA = assay: Proxy for plastic degradation [kcat/Km (catalytic efficiency)] (mM⁻¹s⁻¹); conditions: pH 8.2
PET [3] = assay: Proxy for plastic degradation [Crystallinity (DSC)] (% crystallinity loss); conditions: pH 9.4
PET [4] = assay: Proxy for plastic degradation [Released monomer concentration (HPLC/LC-MS) (TA)]; conditions: pH 7
PET [5] = assay: Proxy for plastic degradation [Released monomer concentration (HPLC/LC-MS) (BA)]; conditions: pH 7

B1: unnamed (protein)
chain: MFQRVWALTAALMLMLSLGATSSHAAQNPHERGPDPSNSYIEQARGSYSVSQRSISRLGSDGFRDGTMYYPTSTADGRFGVVAISPGYTASESTIAWLGPRLASFGFVVVTINTDSRYDQPRQRATQLHAALDHAIGDSVVGPRIDTSRQAVMGHSMGGGGALQAAEERDEIRAAVPLTPWNLKKGWSGVDAATLVIGAENDAIAPVRSHSIPFYESLTNAERRAYLELRREGHFAPNSSNTLIAKYSVSWLKRYVDNDLRYDQFIDPGPRTGITTGVSDYRLG
Proxy for plastic degradation (PET [1]; pH 8, 0 h): 0 µM | Proxy for plastic degradation (PET [1]; pH 8, 10 °C): 0.012 AU | Proxy for plastic degradation (PET [1]; pH 8, 28 °C): 0.016 AU | Proxy for plastic degradation (PET [1]; pH 8, 37 °C): 0.045 AU | Proxy for plastic degradation (PET [1]; pH 8, 45 °C): 0.073 AU | Proxy for plastic degradation (PET [1]; pH 8.5): 0.199 AU | Proxy for plastic degradation (PET [1]; pH 9.5): 0.085 AU | Proxy for plastic degradation (PET [1]; pH 10.5): 0.015 AU

B2: unnamed (protein)
chain: MGSSHHHHHHSSGLVPRGSHMRGPNPTAASLEASAGPFTVRSFTVSRPSGYGAGTVYYPTNAGGTVGAIAIVPGYTARQSSIKWWGPRLASHGFVVITIDTNSTLDQPSSRSSQQMAALRQVASLNGTSSSPIYGKVDTARMGVMGWSMGGGGSLISAANNPSLKAAAPQAPWDSSTNFSSVTVPTLIFACENDSIAPVNSSALPIYDSMSRNAKQFLEINGGSHSCANSGNSNQALIGKKGVAWMKRFMDNDTRYSTFACENPNSTRVSDFRTANCSLEDPAANKARKEAELAAATAEQ
Proxy for plastic degradation (PET [2]; 4 °C): 100 µM | Proxy for plastic degradation (PET [2]; 16 °C): 410 µM | Proxy for plastic degradation (PET [2]; 30 °C): 1100 µM | Proxy for plastic degradation (PET [2]; 37 °C): 300 µM | Proxy for plastic degradation (PET [2]; 55 °C): 180 µM | Proxy for plastic degradation (PET [2]; 70 °C): 100 µM

B3: unnamed (protein)
chain: MLAVWDDTLAHPVRGRDRELATLTGLLDNTSGRRGTGMVVVGAPGTGKTTLLNALVEHAEGFQVLWAEGSAAESDVRFAGVEQLLRPLESLVSLLPDDRGRALRPVWGLPADDEGQVGSLAVPAAVSALLGLAARRQPVLCCVDSAHLLDSASLSALAFAARRAHHAGVVFVFAVDCTADTEVDTETSVWGELPRLRLGRLDDEAAHALLRDRLGASLPHDLADSLLDVGHGAPLALVELAESLTPEHLCGRAAPPSSPPPEGRLCRTLGHRLSALSEGAREVVALAGISEGLDEQLTCRVLPHHRSTLAEAVRSGLVVLDGDTVRTAADTVPSALLAALTPQDIVQAHHRMAEAAEAVGDRDRAVWHRAAIAMAPDPALVADLDDIAERARAAAAHATAAAASERAAALTSDTKERARRLVAAATDHWASGRPQRARTALRLAAPLSDSVLGARVSRLAGEIELRRGDPSVAATKLISTARQLASTHRTLAASALMLAGEASFVAGDNARYCLTAKDAALLCGPEEWPATRVVREHFTAMSATFRGEHSAAAAPLRSLVELGETTPDPTAKTLASQAAFTLGDAERSRDLALQAVVCARARGDESGVPWALVYAALSALLSGQLSAASTTALEGLQVARSLGQSNSAVDHVTVLAMLAALQGDEETALQRLQAANTELAERGLGRPSALATWAAACVDLAHDRPAEAFDRFRRMTVGRSRHCVPLRVMAVPHFVEAAVRCGEKEVARRSLVTFEHWANTTGGTARVALAHRCHALLAEQDGEAQERFTEAVRLHREADAPYDLAVTQLLYASHLRRSRRPKQARELLREAVQLFDDLGATHWVERASQELRACGHPGRGKPHLSRGLSPQQERIAQLVADGATNKEIATQLFISHRTVDHHLRNIFAKLDVRSRVQLAALFR
Proxy for plastic degradation (PBSA): 430

B4: unnamed (protein)
chain: B3 chain with A233D
Proxy for plastic degradation (PBSA): 330

B5: unnamed (protein)
chain: B3 chain with A233H
Proxy for plastic degradation (PBSA): 375

B6: unnamed (protein)
chain: MNFPRASRLMQAAVLGGLMAVSAAATAQTNPYARGPNPTAASLEASAGPFTVRSFTVSRPSGYGAGTVYYPTNAGGTVGAIAIVPGYTARQSSIKWWGPRLASHGFVVITIDTNSTLDQPSSRSSQQMAALRQVASLNGTSSSPIYGKVDTARMGVMGWSMGGGGSLISAANNPSLKAAAPQAPWDSSTNFSSVTVPTLIFACENDSVAPVASSALPIYDSMSRNAKQFLEINGGSHYCANSGNSNQALIGKKGVAWMKRFMDNDTRYSTFACENPNSTRVSDFRTANCSLEHHHHHH
Proxy for plastic degradation (PET [3]): 3.2

B7: unnamed (protein)
chain: B6 chain with V208I, A212N, Y238S
Proxy for plastic degradation (PET [3]): 1.5

B8: unnamed (protein)
chain: B6 chain with Y238S
Proxy for plastic degradation (PET [3]): 2

B9: unnamed (protein)
chain: B6 chain with A212N, Y238S
Proxy for plastic degradation (PET [3]): 0.6

B10: unnamed (protein)
chain: MTHQIVTTQYGKVKGTTENGVHKWKGIPYAKPPVGQWRFKAPEPPEVWEDVLDATAYGPICPQPSDLLSLSYTELPRQSEDCLYVNVFAPDTPSQNLPVMVWIHGGAFYLGAGSEPLYDGSKLAAQGEVIVVTLNYRLGPFGFLHLSSFNEAYSDNLGLLDQAAALKWVRENISAFGGDPDNVTVFGESAGGMSIAALLAMPAAKGLFQKAIMESGASRTMTKEQAASTSAAFLQVLGINEGQLDKLHTVSAEDSLKAADQLRIAEKENIFQLFFQPALDPKTLPEEPEKAIAEGAASGIPLLIGTTRDEGYLFFTPDSDVHSQETLDAALEYLLGKPLAEKAADLYPRSLESQIHMMTDLLFWRPAVAYASAQSHYAPVWMYRFDWHPKKPPYNKAFHALELPFVFGNLDGLERMAKAEITDEVKQLSHTIQSAWITFAKTGNPSTEAVNWPAYHEETRETLILDSEITIENDPESEKRQKLFPSKGE
Proxy for plastic degradation (PET [4]; 1 h): 0 µM | Proxy for plastic degradation (PET [4]; 2 h): 100 µM | Proxy for plastic degradation (PET [5]; 1 h): 10 mM | Proxy for plastic degradation (PET [5]; 2 h): 1250 mM

Source: the PETadex activity labels
